The RNAGym collection of RNA variant scans (doi:10.7554/elife.90254)

B1: LINE1-full (parent)
chain: UACGUAGGUGGUUUUCCCCUGAUAGUGCUAAGGGGGCCUGGAAGUUUGGACUGGGCAGAGCUCAACACAGCGUGGCAAAGUGGCUGUGGCUAGACUGCCUCUCUGGAUUCCUCGUCACUCAGCAGGGCAUCUCUGAGAGAAAUGCC

Variants of: B1
Assay: self-cleavage, relative activity (ratio to wild type); higher = more cleavage; in vitro, sequencing; the parent is a self-cleaving ribozyme

Point of comparison: UACGUAGGUGGUUUUCCCCCGAUAGUGCUAAGGGGGCCUGGAAGUAUGGACUGGGCAGAGCUCAACACAGCGUGGCAAAGUGGCUGUGGCUAGACUGCCUCUCUGGAUUCCUCGUCACUCAGCAGGGCAUCUCUGAGAGAAAUGCC [U20C U46A], self-cleavage 0.85. Against it:
- UACGUAGGUGGUUUUCCCCCGAUAGUGCUAAGGGGGCCUGGAAGUUUGGACUGGGCAGAGCUCAACACAGCGUGGCAAAGUGGCUGAGGCUAGACUGCCUCUCUGGAUUCCUCGUCACUCAGCAGGGCAUCUCUGAGAGAAAUGCC [U20C U87A] — lower, 0.1
- UACGUAGGUGGUUUUCCCCCGAUAGUGCUAAGGGGGCCUGGAAGUUUGGACUGGGCAGAGCUCAACACAGCGUGGCAAAGUGGCUGUGACUAGACUGCCUCUCUGGAUUCCUCGUCACUCAGCAGGGCAUCUCUGAGAGAAAUGCC [U20C G89A] — lower, 0.09
- UACGUAGGUGGUUUUCCCCCGAUAGUGCUAAGGGGGCCUGGAAGUUUGGACAGGGCAGAGCUCAACACAGCGUGGCAAAGUGGCUGUGGCUAGACUGCCUCUCUGGAUUCCUCGUCACUCAGCAGGGCAUCUCUGAGAGAAAUGCC [U20C U52A] — lower, 0.69
- UACGUAGGUGGUUUUCCCCCGAUAGUGCUAAGGGGGCCUGGAAGUUUGGACUGGGCAGAGCUCAACACAGCGUUGCAAAGUGGCUGUGGCUAGACUGCCUCUCUGGAUUCCUCGUCACUCAGCAGGGCAUCUCUGAGAGAAAUGCC [U20C G74U] — higher, 1.46
- UACGUAGGUGGUUUUCCCCCGAUAGCGCUAAGGGGGCCUGGAAGUUUGGACUGGGCAGAGCUCAACACAGCGUGGCAAAGUGGCUGUGGCUAGACUGCCUCUCUGGAUUCCUCGUCACUCAGCAGGGCAUCUCUGAGAGAAAUGCC [U20C U26C] — higher, 1.26
- UACGUAGGUGGUUUUCCCCCGAUAGAGCUAAGGGGGCCUGGAAGUUUGGACUGGGCAGAGCUCAACACAGCGUGGCAAAGUGGCUGUGGCUAGACUGCCUCUCUGGAUUCCUCGUCACUCAGCAGGGCAUCUCUGAGAGAAAUGCC [U20C U26A] — higher, 0.92
- UACGUAGGUGGUUUUCCCCCGAUAGUGCUAAGGGGGCCUGGAAGUGUGGACUGGGCAGAGCUCAACACAGCGUGGCAAAGUGGCUGUGGCUAGACUGCCUCUCUGGAUUCCUCGUCACUCAGCAGGGCAUCUCUGAGAGAAAUGCC [U20C U46G] — higher, 1.52
- UACGUAGGUGGUUUUCCCCCGAUAGUGCUAAGGGGGCCUGGAAGUUAGGACUGGGCAGAGCUCAACACAGCGUGGCAAAGUGGCUGUGGCUAGACUGCCUCUCUGGAUUCCUCGUCACUCAGCAGGGCAUCUCUGAGAGAAAUGCC [U20C U47A] — higher, 1.19
- UACGUAGGUGGUUUUCCCCCGAUAGUGCUAAGGGGGCCAGGAAGUUUGGACUGGGCAGAGCUCAACACAGCGUGGCAAAGUGGCUGUGGCUAGACUGCCUCUCUGGAUUCCUCGUCACUCAGCAGGGCAUCUCUGAGAGAAAUGCC [U20C U39A] — higher, 1.48
- UACGUAGGUGGUUUUCCCCCGAUAGUGCUAAGGGGGCCCGGAAGUUUGGACUGGGCAGAGCUCAACACAGCGUGGCAAAGUGGCUGUGGCUAGACUGCCUCUCUGGAUUCCUCGUCACUCAGCAGGGCAUCUCUGAGAGAAAUGCC [U20C U39C] — higher, 1.28
- UACGUAGGUGGUUUUCCCCCGAUAGUGCUAAGGGGGCCUGGAAGUUUGGACUGGGCAGAGCUCAACACAUCGUGGCAAAGUGGCUGUGGCUAGACUGCCUCUCUGGAUUCCUCGUCACUCAGCAGGGCAUCUCUGAGAGAAAUGCC [U20C G70U] — lower, 0.05
- UACGUAGGUGGUUUUCCCCCGAUAGUGCUAAGGGGGCCUGGAAGUUUGGACUGGGCAGAGCUCAACACAACGUGGCAAAGUGGCUGUGGCUAGACUGCCUCUCUGGAUUCCUCGUCACUCAGCAGGGCAUCUCUGAGAGAAAUGCC [U20C G70A] — lower, 0.14
- UACGUAGGUGGUUUUCCCCCGAUAGUGCUAAGGGGGCCUGGAAGUUUGGACUGGGCAGAGCUCAACACAGCCUGGCAAAGUGGCUGUGGCUAGACUGCCUCUCUGGAUUCCUCGUCACUCAGCAGGGCAUCUCUGAGAGAAAUGCC [U20C G72C] — higher, 2.53
- UACGUAGGUGGUUUUCCCCCGAUAGUGCUAAGGGGGCCUGGAAGUUUGGACUGGGCAGAGCUCAACACAGCGUGGCAAAGUGGCUGUGGCUAGACUGCCUCUCUGGAUUCCUCGUCACUCAGCAGUGCAUCUCUGAGAGAAAUGCC [U20C G126U] — higher, 1.92
- UACGUAGGUGGUUUUCCCCCGAUAGUGCCAAGGGGGCCUGGAAGUUUGGACUGGGCAGAGCUCAACACAGCGUGGCAAAGUGGCUGUGGCUAGACUGCCUCUCUGGAUUCCUCGUCACUCAGCAGGGCAUCUCUGAGAGAAAUGCC [U20C U29C] — higher, 1.27
- UACGUAGGUGGUUUUCCCCCGAUAGUGCAAAGGGGGCCUGGAAGUUUGGACUGGGCAGAGCUCAACACAGCGUGGCAAAGUGGCUGUGGCUAGACUGCCUCUCUGGAUUCCUCGUCACUCAGCAGGGCAUCUCUGAGAGAAAUGCC [U20C U29A] — lower, 0.62
- UACGUAGGUGGUUUUCCCCCGAUAGUGCUAAGGGGGCCUGGAAGUUUGGACUGGGCAGAGCCCAACACAGCGUGGCAAAGUGGCUGUGGCUAGACUGCCUCUCUGGAUUCCUCGUCACUCAGCAGGGCAUCUCUGAGAGAAAUGCC [U20C U62C] — lower, 0.1
- UACGUAGGUGGUUUUCCCCCGAUAGUGCUAAGGGGGCCUGGAAGUUUGGACUGGGCAGAGCUCAACACAGCGUGGCAAAGUGGCUGUGGCUAAACUGCCUCUCUGGAUUCCUCGUCACUCAGCAGGGCAUCUCUGAGAGAAAUGCC [U20C G93A] — lower, 0.04
- UACGUAGGUGGUUUUCCCCCGAUAGUGCUAAGGGGGCCUGGAAGUUUGGACUGGGCAGAGCUCAACACAGCGUGGCAAAGUGGCUGUAGCUAGACUGCCUCUCUGGAUUCCUCGUCACUCAGCAGGGCAUCUCUGAGAGAAAUGCC [U20C G88A] — lower, 0.06
